Measurements taken from patent US20210347908A1 (ELPISCIENCE SUZHOU BIOPHARMA, published 2021).
Numbering of substitutions follows the chain as printed.

B1: Antibody 060 (hybridoma antibody) (antibody, V domains shown)
VH: QVQLKESGPGLVAPSESLSITCTVSGFSLTNYDISWIRQSPGKGLEWLGVIWTGGDTNFNSAFMSRLSISKDKSKSQVFLKLNSLQTDDTAIYYCVRVQYFGGSYGPMDYWGQGISVTVSS
VL: DIQMTQASSYLSVSLGGRVTITCEASDHINDWLAWYQQTPGNAPRLLISGATSLETGVPSRFSGSGSGKDYTLSITSLQTEDIATYYCQQYWNTPLTFGAGTRLELK
notes: mouse hybridoma antibody
B2: Antibody 001 (hybridoma antibody) (antibody, V domains shown)
VH: EVKLEESGGGLVQPGGSMKLSCVASGFTFRNYWMNWVRQSPERGLEWIAEISLKSNTYATHYAESVKGRFAISRDGSKSSFYLQMNDLRAEDTGIYYCTTFTKVVADWHLDVWGAGTTVTVSS
VL: DVLMTQTPLSLPVSLGDQASISCRSSQNIVHSNGNTYLEWYLQKPGQSPKLLIYKVSNRFSGVPDRFSGSGSGTDFTLRISRVEAEDLGVYYCFQGSHVPFTFGSGTKLEIK
notes: mouse hybridoma antibody
B3: Antibody 032 (hybridoma antibody) (antibody, V domains shown)
VH: B2 VH with K3R, A24V, S52T, G76D, A90P
VL: B2 VL with S14N
notes: mouse hybridoma antibody
B4: Antibody 002 (hybridoma antibody) (antibody, V domains shown)
VH: B2 VH with K19I, S52T, G76D, A90P
VL: B2 VL with V56I, K112Q
notes: mouse hybridoma antibody
B5: reference antibody KWAR23 (antibody, V domains shown)
VH: EVQLQQSGAELVKPGASVKLSCTASGFNIKDYYIHWVQQRTEQGLEWIGRIDPEDGETKYAPKFQDKATITADTSSNTAYLHLSSLTSEDTAVYYCARWGAYWGQGTLVTVSS
VL: QIVLTQSPAIMSASPGEKVTLTCSASSSVSSSYLYWYQQKPGSSPKLWIYSTSNLASGVPARFSGSGSGTSYSLTISSMEAEDAASYFCHQWSSYPRTFGAGTKLELK
B6: Antibody 035 (hybridoma antibody) (antibody, V domains shown)
VH: QIQLVQSGPELRKPGETVKISCKASGYSFTNYAMNWVKQAPGKVLKWMGFINTYTGEPTYADDFKGRFAFSLETSASTAYLQINNLKNEDTATYFCTRTRGYYDFDGGAFDYWGQGTSLTVSS
VL: DIVMTQSQKFMSTSIGDRVSVTCKASQNVGTHLAWYQQKPGQSPKALIFSASYRYIGVPDRFTGSGSGTDFTLTITNVQSEDLAEYFCQQYNTYPLTFGAGTKLELK
notes: mouse hybridoma antibody
B7: reference antibody HEFLB (antibody, V domains shown)
VH: EVQLVQSGAEVKKPGESLRISCKASGYSFTSYWVHWVRQMPGKGLEWMGNIDPSDSDTHYSPSFQGHVTLSVDKSISTAYLQLSSLKASDTAMYYCVRGGTGTLAYFAYWGQGTLVTVSS
VL: DVVMTQSPLSLPVTLGQPASISCRSSQSLVHSYGNTYLYWFQQRPGQSPRLLIYRVSNRFSGVPDRFSGSGSGTDFTLKISRVEAEDVGVYYCFQGTHVPYTFGGGTKVEIK
B8: reference antibody 29-AM4-5 (antibody, V domains shown)
VH: EVQLVESGGGLVQPGGSLRLSCAASGFNISYYFIHWVRQAPGKGLEWVASVYSSFGYTYYADSVKGRFTISADTSKNTAYLQMNSLRAEDTAVYYCARFTFPGLFDGFFGAYLGSLDYWGQGTLVTVSS
VL: DIQMTQSPSSLSASVGDRVTITCRASQSVSSAVAWYQQKPGKAPKLLIYSASSLYSGVPSRFSGSRSGTDFTLTISSLQPEDFATYYCQQAVNWVGALVTFGQGTKVEIK

target: T1, Fc tagged human SIRPα v1 ECD recombinant protein (human, UniProt P78324 31-370); test: ELISA
T1 construct: range 1-370; cloned range M1-R370 includes the signal peptide; also called hSIRPα V1; not shown: human IgG Fc region (hFc) of the pCPC vector
Method: (§1) Binding specificity of the purified hybridoma antibodies against SIRP family members was detected by ELISA assay using recombinant proteins of Fc tagged human SIRPα v1 ECD, human SIRPα v2 ECD, human SIRPβ ECD and human SIRPγ ECD. Briefly the antibodies were incubated with ELISA microplate coated antigens at 37° C. for 1 hour. After washing, horseradish peroxidase (HRP) labeled anti-mouse or anti-human IgG 2nd Ab (Sigma) was added and incubated at 37° C. for 1 hour. Then, 100 μl/well of TMB solution (Biotechnology) was added. After incubation for 15 minutes at room temperature, the reaction was stopped by the addition of 50 μl of 1N HCl. OD 450 nm was read and EC₅₀ was calculated. Other than 060 and HEFLB, all of the antibodies as tested can bind with both human SIRPα v1 and SIRPα v2. 060 and HEFLB can bind with human SIRPα v1 but not v2. Other than 055, all of the antibodies as tested can bind with human SIRPβ. In comparison with other known anti-SIRPα antibodies, only 022, 035 and 050 can bind with human SIRPγ weakly.

Row | EC50 [nM] | Binder
1 | 0.03 | B1
2 | 0.07 | B2
3 | 0.03 | B3
4 | 0.11 | B4
5 | 0.17 | B5
6 | 0.03 | B6
7 | 0.17 | B7
8 | 0.15 | B8

target: T2, Fc tagged human SIRPα v2 ECD recombinant protein (human); test: ELISA
T2 construct: range 1-369; cloned range M1-R369 includes the signal peptide; also called hSIRPα V2
Method: as §1

Row | EC50 [nM] | Binder
9 | 0.07 | B2
10 | 0.04 | B3
11 | 0.1 | B4
12 | 0.22 | B5
13 | 0.04 | B6
14 | 0.2 | B8

target: T3, Fc tagged human SIRPβ ECD recombinant protein (human, UniProt O00241 30-371); test: ELISA
T3 construct: range 1-371; cloned range includes the signal peptide; also called hSIRPβ; not shown: human IgG Fc region (hFc) of the pCPC vector
Method: as §1

Row | EC50 [nM] | Binder
15 | 0.04 | B1
16 | 0.12 | B2
17 | 0.02 | B3
18 | 0.16 | B4
19 | 0.18 | B5
20 | 0.02 | B6
21 | 0.17 | B7
22 | 0.21 | B8

target: T4, biotin labeled soluble human SIRPα v1 ECD recombinant protein (human, UniProt P78324 31-373, biotin labeled); test: competitive ELISA, biotin-SIRPα v1 ECD to coated CD47 ECD
T4 construct: extracellular domain
Method: Competitive ELISA assay was used to determine whether the purified hybridoma antibodies can block CD47 and SIRPα interaction or CD47 and SIRPγ interaction. Briefly, for CD47 and SIRPα interaction blocking activity detection, antibody and biotin labeled soluble human SIRPα v1 ECD recombinant protein were co-incubated with ELISA microplate coated human CD47 ECD recombinant protein.
For CD47 and SIRPγ interaction blocking activity detection, antibody and biotin labeled soluble human CD47 ECD recombinant protein were co-incubated with ELISA microplate coated human SIRPγ ECD recombinant protein. After washing, horseradish peroxidase labeled streptavidin (HRP-SA, Sigma) was added and incubated at 37° C. for 1 hour. Then, 100 μl/well of TMB solution (Biotechnology) was added. After incubation for 15 minutes at room temperature, the reaction was stopped by the addition of 50 μl of 1N HCl. OD 450 nm was read. Blocking ratio and IC₅₀ was calculated. In comparison with other known anti-SIRPα antibodies, 022, 050, 055, and 074 cannot block CD47 and SIRPα interaction. In particular, all of the antibodies of the invention cannot block CD47 and SIRPγ interaction.

Row | IC50 [nM] | Binder
23 | > 1000 | B1
24 | 1.4 | B2
25 | 0.2 | B3
26 | 1.3 | B4
27 | 0.6 | B5
28 | 4.9 | B6
29 | 0.5 | B7
30 | 1.4 | B8
